Experimental data published in the RNAGym collection of RNA variant scans (doi:10.1021/acssynbio.7b00057).

B1: Pistol ribozyme (parent)
chain: GGGUCGUUGUUCCAUAAUCGCGUGGAUAUGGCACGCAAGUUUCUACCGGGCACCGUAAAUGUCCGACUGGAGCCGUUCGGGCGGCUAUAAACAGACCUCAGGCCCGAAGCGUGGCGGCACCUGCCGCCGGUGGUAAAAAAGAUCGGAAGAGCACACGUCU

Variants of: B1
Experiment: aptazyme ON/OFF ratio, guanine; higher = stronger switching; co-transcriptional cleavage with and without guanine

| Variant | aptazyme ON/OFF ratio |
| --- | --- |
| U7A U10G U11C C12A C13U | 1.2 |
| U7A U10G U11C C12A C13G | 1.12 |
| U7A U10G U11C C12A C13A | 1.33 |
| U7A U11A C13A | 1.13 |
| U7A U11A C13U | 1.13 |
| U7A U11A C13G | 1.16 |
| U7A U10C C12A | 1.37 |
| U7A U10C C12G | 1.42 |
| U7A U10C C12U | 3.22 |
| U7A U8G U11A C12G | 1.2 |
| U7A U8G U11A C12A | 1.43 |
| U7A U8G U11A C12U | 1.23 |
| U7A U10A U11A C13G | 1.15 |
| U7A U10A U11A C13A | 1.19 |
| U7A U10A U11A C13U | 1.16 |
| U7A U10G U11C | 1.04 |
| U7A U10G U11G | 1.27 |
| U7A U10G U11A | 1.06 |
| U7A U8G U10G U11C C12G C13A | 1.22 |
| U7A U8G U10G U11C C12G C13U | 1.56 |
| U7A U8G U10G U11C C12G C13G | 1.22 |
| U7A U10A U11C C12G C13U | 1.1 |
| U7A U10A U11C C12G C13A | 1.08 |
| U7A U10A U11C C12G C13G | 1.17 |

| Variant | aptazyme ON/OFF ratio |
| --- | --- |
| U7A U10C U11A C12U | 1.3 |
| U7A U10C U11A C12A | 1.23 |
| U7A U10C U11A C12G | 1.26 |
| U7A U8G U11A C12U C13U | 1.18 |
| U7A U8G U11A C12U C13A | 1.5 |
| U7A U8G U11A C12U C13G | 1.35 |
| U7A U10C U11A C12U C13U | 1.26 |
| U7A U10C U11A C12U C13G | 1.14 |
| U7A U10C U11A C12U C13A | 1.17 |
| U7A U11A C12G | 1.2 |
| U7A U11A C12A | 1.41 |
| U7A U11A C12U | 1.26 |
| U7A U8G U11A C12A C13G | 1.3 |
| U7A U8G U11A C12A C13U | 1.07 |
| U7A U8G U11A C12A C13A | 1.41 |
| U7A U11G C12A | 1.16 |
| U7A U11G C12G | 1.27 |
| U7A U11G C12U | 1.22 |
| U7A U8G U11A C12G C13U | 1.24 |
| U7A U8G U11A C12G C13A | 1.11 |
| U7A U8G U11A C12G C13G | 1.07 |
| U7A U11G C13A | 1.03 |
| U7A U11G C13U | 1.04 |
| U7A U11G C13G | 1.05 |

| Variant | aptazyme ON/OFF ratio |
| --- | --- |
| U7A U10C U11G C13A | 1.24 |
| U7A U10C U11G C13G | 1.2 |
| U7A U10C U11G C13U | 1.17 |
| U7A U8G U11G C12G C13U | 1.42 |
| U7A U8G U11G C12G C13G | 1.32 |
| U7A U8G U11G C12G C13A | 1.15 |
| U7A U10A C12G C13U | 1.27 |
| U7A U10A C12G C13A | 1.31 |
| U7A U10A C12G C13G | 1.25 |
| U7A U8G U11G C13G | 1.24 |
| U7A U8G U11G C13A | 1.26 |
| U7A U8G U11G C13U | 1.31 |
| U7A U10A | 1.11 |
| U7A U10C | 4.51 |
| U7A U10G | 1.56 |
| U7C C12G C13U | 1.43 |
| U7C C12G C13A | 1.18 |
| U7C C12G C13G | 1.17 |
| U7A U10C U11C C12A C13A | 1.06 |
| U7A U10C U11C C12A C13G | 1.16 |
| U7A U10C U11C C12A C13U | 1.1 |
| U7C C12A C13U | 1.19 |
| U7C C12A C13G | 1.1 |
| U7C C12A C13A | 1.16 |

| Variant | aptazyme ON/OFF ratio |
| --- | --- |
| U7A U10A U11C C12G | 1.1 |
| U7A U10A U11C C12A | 1.08 |
| U7A U10A U11C C12U | 1.03 |
| U7A U10C C12U C13A | 1.16 |
| U7A U10C C12U C13G | 1.09 |
| U7A U10C C12U C13U | 1.33 |
| U7A U10A U11A C12U C13U | 1.22 |
| U7A U10A U11A C12U C13G | 1.26 |
| U7A U10A U11A C12U C13A | 1.15 |
| U7A U11A | 1.24 |
| U7A U11C | 1.29 |
| U7A U11G | 1.17 |
| U7A U8G U10G U11C C12U C13G | 1.11 |
| U7A U8G U10G U11C C12U C13U | 1.41 |
| U7A U8G U10G U11C C12U C13A | 0.988 |
| U7A U8G U10G U11G C12U C13U | 1.38 |
| U7A U8G U10G U11G C12U C13A | 1.31 |
| U7A U8G U10G U11G C12U C13G | 1.33 |
| U7A U10G C12G C13G | 1.08 |
| U7A U10G C12G C13A | 1.08 |
| U7A U10G C12G C13U | 1.2 |
| U7A U10G U11C C12U C13A | 1.3 |
| U7A U10G U11C C12U C13G | 1.41 |
| U7A U10G U11C C12U C13U | 1.21 |

| Variant | aptazyme ON/OFF ratio |
| --- | --- |
| U7A U10A C13A | 1.07 |
| U7A U10A C13U | 1.07 |
| U7A U10A C13G | 1.05 |
| U7A U10G U11G C12A C13U | 1.22 |
| U7A U10G U11G C12A C13A | 1.19 |
| U7A U10G U11G C12A C13G | 1.16 |
| U7A U10C C12G C13U | 1.28 |
| U7A U10C C12G C13G | 1.35 |
| U7A U10C C12G C13A | 1.29 |
| U7A U10A C12G | 1.22 |
| U7A U10A C12U | 1.1 |
| U7A U10A C12A | 1.31 |
| U7A U10G U11G C12G C13A | 1.11 |
| U7A U10G U11G C12G C13G | 1.28 |
| U7A U10G U11G C12G C13U | 1.22 |
| U7A U11A C12A C13A | 1.3 |
| U7A U11A C12A C13U | 1.41 |
| U7A U11A C12A C13G | 1.26 |
| U7A U11C C12G C13U | 1.23 |
| U7A U11C C12G C13G | 1.16 |
| U7A U11C C12G C13A | 1.3 |
| U7A U10G U11G C13G | 1.16 |
| U7A U10G U11G C13U | 1.27 |
| U7A U10G U11G C13A | 1.12 |

| Variant | aptazyme ON/OFF ratio |
| --- | --- |
| U7A U10A U11C C13U | 1 |
| U7A U10A U11C C13A | 1.02 |
| U7A U10A U11C C13G | 1.03 |
| U7A U8G U10G U11A C13U | 1.3 |
| U7A U8G U10G U11A C13A | 1.4 |
| U7A U8G U10G U11A C13G | 1.27 |
| U7A U10G U11A C12A C13U | 1.08 |
| U7A U10G U11A C12A C13G | 1.11 |
| U7A U10G U11A C12A C13A | 1.17 |
| U7A U11C C12U C13U | 1.38 |
| U7A U11C C12U C13G | 1.38 |
| U7A U11C C12U C13A | 1.27 |
| U7A U10C U11A C13U | 1.16 |
| U7A U10C U11A C13G | 1.09 |
| U7A U10C U11A C13A | 1.15 |
| U7A U8G U10G U11C | 1.39 |
| U7A U8G U10G U11G | 1.44 |
| U7A U8G U11G C12A | 1.31 |
| U7A U8G U11G C12G | 1.36 |
| U7A U8G U11G C12U | 1.29 |
| U7A U10C C12A C13U | 1.21 |
| U7A U10C C12A C13A | 1.35 |
| U7A U10C C12A C13G | 1.12 |
| U7A U8G U10G U11C C12A C13G | 1.11 |

| Variant | aptazyme ON/OFF ratio |
| --- | --- |
| U7A U8G U10G U11C C12A C13U | 1.51 |
| U7A U8G U10G U11C C12A C13A | 1.39 |
| U7A U10G U11A C12U C13G | 1.13 |
| U7A U10G U11A C12U C13U | 1.07 |
| U7A U10G U11A C12U C13A | 1.29 |
| U7A U11A C12G C13G | 1.14 |
| U7A U11A C12G C13U | 1.24 |
| U7A U11A C12G C13A | 1.08 |
| U7A U10A U11G C12U C13U | 1.35 |
| U7A U10A U11G C12U C13G | 1.45 |
| U7A U10A U11G C12U C13A | 1.11 |
| U7A U10G U11A C12G C13A | 1.08 |
| U7A U10G U11A C12G C13G | 1.17 |
| U7A U10G U11A C12G C13U | 1.28 |
| U7A U8G U11G C12A C13A | 1.18 |
| U7A U8G U11G C12A C13G | 1.33 |
| U7A U8G U11G C12A C13U | 1.21 |
| U7A U8G U11C C12U C13G | 1.03 |
| U7A U8G U11C C12U C13U | 1.36 |
| U7A U8G U11C C12U C13A | 1.43 |
| U7A U10A U11C | 1 |
| U7A U10A U11G | 1.35 |
| U7A U10A U11A | 1.21 |
